Sequences and labels used below:
B1: FCHO1 μHD (purified, not on beads) [human] / EPS15 616–638 peptide [human] (parent complex)
chain 1: HGVSRGPSPVVLGSQDALPIATAFTEYVHAYFRGHSPSCLARVTGELTMTFPAGIVRVFSGTPPPPVLSFRLVHTTAIEHFQPNADLLFSDPSQSDPETKDFWLNMAALTEALQRQAEQNPTASYYNVVLLRYQFSRPGPQSVPLQLSAHWQCGATLTQVSVEYGYRPGATAVPTPLTNVQILLPVGEPVTNVRLQPAATWNLEEKRLTWRLPDVSEAGGSGRLSASWEPLSGPSTPSPVAAQFTSEGTTLSGVDLELVGSGYRMSLVKRRFATGMYLVSC
chain 2: NLDFFQSDPFVGSDPFKDDPFGK

The variants in this assay derive from B1. The experiment in a line: ITC; parent: 2.7e+03 nM. On the technique in general: ITC needs no label: the signal is the heat of the interaction.
Turning to chain 1 HGVSRGPSPVVLGSQDALPIATAFTEYVHAYFRGHSPSCLARVTGELTMTFPAGIVRVFSGTPPPPVLSFRLVHTTAIEHFQPNADLLFSDPSQSDPETKDFWLNMAALTEALQRQAEQNPTADYYNVVLLRYQFSRPGPQSVPLQLSAHWQCGATLTQVSVEYGYRPGATAVPTPLTNVQILLPVGEPVTNVRLQPAATWNLEEKRLTWRLPDVSEAGGSGRLSASWEPLSGPSTPSPVAAQFTSEGTTLSGVDLELVGSGYRMSLVKRRFATGMYLVSC [chain 1 S124D], the Kd came to 9.1 µM.

For the variant chain 1 HGVSRGPSPVVLGSQDALPIATAFTEYVHAYFRGHSPSCLARVTGELTMTFPAGIVRVFSGTPPPPVLSFRLVHTTAIEHFQPNADLLFSDPSQSDPETKDFWLNMAALTEALQRQAEQNPTASYYNVVLLRYQFSRPGPQSVPLQLSAHWQCGATLTQVSVEYGYRPGATAVPTPLTNVQILLPVGEPVTNVRLQPAATWNLEEKRLTWRLPDVSEAGGSGRLSASWEPLSGPSTPSPVAAQFTSEGTTLSGVDLELVGSGYMMSLVKRRFATGMYLVSC [chain 1 R264M], the Kd was 19.6 µM.

Consider chain 1 HGVSRGPSPVVLGSQDALPIATAFTEYVHAYFRGHSPSCLARVTGELTMTFPAGIVRVFSGTPPPPVLSFRLVHTTAIEHFQPNADLLFSDPSQSDPETKDFWLNMAALTEALQRQAEQNPTASYYNVVLLRYQFSRPGPQSVPLQLSAHWQCGATLTQVSVEYGYRPGATAVPTPLTNVQILLPVGEPVTNVRLQPAATWNLEEKRLTWRLPDVSEAGGSGRLSASWEPLSGPSTPSPVAAQFTSEGTTLSGVDLELVGSGYAMGLVKRRFATGMYLVSC [chain 1 R264A, chain 1 S266G], for which the Kd came to 77.4 µM.

One may read the Kd as the concentration at which binding is half-saturated.

The values above are taken from PMC4921775, “Transient Fcho1/2⋅Eps15/R⋅AP-2 Nanoclusters Prime the AP-2 Clathrin Adaptor for Cargo Binding” (Developmental Cell, 2016).
